From article PMC11530598 (2024)

Target: T1, MAP1B LC-mScarlet (Mus musculus (Mouse), UniProt P14873)
T1 chain: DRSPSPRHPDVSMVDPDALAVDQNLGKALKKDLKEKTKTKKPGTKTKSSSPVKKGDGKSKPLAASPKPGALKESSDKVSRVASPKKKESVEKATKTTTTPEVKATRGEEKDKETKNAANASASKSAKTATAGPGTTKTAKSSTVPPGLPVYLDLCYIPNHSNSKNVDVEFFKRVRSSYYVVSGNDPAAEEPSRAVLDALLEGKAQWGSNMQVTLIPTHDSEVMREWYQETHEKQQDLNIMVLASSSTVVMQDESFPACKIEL
Assay: TIRF microscopy recruitment assay on microtubules; tested on taxol-stabilised microtubules

B1: sfGFP-MAP1B HC^1-532 (protein)
chain: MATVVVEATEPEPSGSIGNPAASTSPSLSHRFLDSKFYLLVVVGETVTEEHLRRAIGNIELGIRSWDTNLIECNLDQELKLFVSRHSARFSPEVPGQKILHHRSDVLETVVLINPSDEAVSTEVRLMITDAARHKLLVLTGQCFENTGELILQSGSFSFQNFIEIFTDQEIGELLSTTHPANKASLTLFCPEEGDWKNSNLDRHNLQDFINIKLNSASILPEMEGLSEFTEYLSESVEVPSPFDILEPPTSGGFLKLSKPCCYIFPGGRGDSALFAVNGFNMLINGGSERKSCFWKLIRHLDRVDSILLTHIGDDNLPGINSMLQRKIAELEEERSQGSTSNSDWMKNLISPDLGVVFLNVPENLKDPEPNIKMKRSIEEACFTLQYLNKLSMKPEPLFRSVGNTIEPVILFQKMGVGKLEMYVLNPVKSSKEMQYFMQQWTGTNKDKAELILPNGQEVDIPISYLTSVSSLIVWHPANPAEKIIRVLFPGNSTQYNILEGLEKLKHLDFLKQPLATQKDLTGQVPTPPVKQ
B1: no binding.
